In the supplement of paper PMC10567573:

B1: TRIM39 (parent)
chain: ERDFPCPVCRKTSRYRSLRPNRQL
B2: FBF1 (parent)
chain: QLQCSPAELQAELLHSQARLAELE

Variants of: B1
Test: protein stability index of a GFP-peptide fusion (GPS, HEK-293T) (PSI 1-6); higher = more stable
Conditions: c terminus: a fixed tail appended
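Further: lentivirally expressed fusions sorted by FACS into six bins by GFP to DsRed ratio, PSI derived from sequencing read proportions per bin multiplied by bin number.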

Protein stability index: each site, then its substitutions
N21: Y 2.52 | R 2.96 | H 1.77 | E 1.71 | I 1.85 | K 2.78 | P 2.12 | S 1.91 | M 2.74 | W 2.53 | D 2.12 | V 1.9 | F 2.6 | Q 1.62
R19: P 1.98 | L 2 | T 1.75 | N 1.78 | V 1.85 | H 2.08 | Y 2.12 | I 2.1 | S 2.58 | K 1.82 | W 2.1 | Q 1.91 | M 1.29
R22: I 1.93 | S 1.5 | L 1.83 | V 1.76 | T 2.04 | A 3.44 | E 2.4 | H 1.56 | F 1.79 | M 2.86 | G 2.17 | Q 1.95 | N 1.6 | Y 2.23 | D 2.37 | K 2.66
P20: L 1.75 | V 2.07 | M 3.02 | K 2.58 | I 1.6 | E 2.04 | Y 1.84 | Q 2.17 | F 3.1 | T 2.13 | W 1.84 | H 1.87 | S 1.76 | R 4.09 | C 2.44 | D 2.06 | N 1.77 | A 2.22
L24: F 2.04 | S 3.32 | I 1.85 | P 3.2 | Q 3.08 | T 2.51 | W 1.36 | R 3.37 | N 2.41 | H 2.82 | A 1.81 | C 3.12 | D 1.75 | G 2.06 | V 2.19
Q23: I 1.68 | S 2.17 | R 1.71 | M 2.27 | Y 1.66 | T 2.9 | L 1.87 | C 1.8 | G 2.46 | W 2.26 | H 3.18 | K 1.92 | A 1.33 | P 1.47 | D 2.34 | N 2.77 | F 1.67

Variants of: B2
Test: as above
Conditions: c terminus: a fixed tail appended

Protein stability index, by site and new letter:
P6: T 3.66 | C 2.17 | V 2.44 | A 2.85 | Q 2.84 | Y 2.14 | D 3.56 | E 2.6 | I 2.44 | G 2.24 | M 2.31 | H 2.19 | S 3.26 | F 2.28 | W 2.51 | L 2.43 | R 3.1 | N 3.47 | K 4
C4: S 3.82 | Q 3.92 | P 3.65 | I 2.93 | H 3.15 | M 3.82 | E 4.39 | R 3.94 | Y 3.77 | N 3.26 | T 3.49 | F 3.14 | W 2.82 | K 4.23 | G 3.32 | A 3.99 | V 2.96 | L 3.92 | D 4.22
A7: T 2.78 | V 3.07 | M 2.36 | C 2.74 | S 3.62 | W 2.92 | H 2.57 | F 2.57 | N 3.39 | D 3.66 | K 2.9 | I 2.94 | E 3.4 | L 2.37 | R 3.06 | P 3.79 | G 2.52 | Y 1.82 | Q 3.27
Q1: L 2.62 | E 3.2 | Y 2.6 | G 2.77 | V 2.41 | I 2.82 | P 3.91 | W 2.8 | M 2.64 | D 3.2 | R 2.59 | K 2.69 | T 3.33 | N 2.82 | S 3.31 | C 2.91 | F 2.06 | A 2.89 | H 3.26
L9: N 4.92 | H 4.18 | S 5.05 | A 4.79 | F 4.1 | K 4.57 | T 4.45 | Y 4.64 | P 4.79 | I 4.14 | R 4.51 | E 5.3 | C 3.85 | Q 4.62 | D 5.05 | M 4.3 | W 4.52 | V 4.4 | G 4.96
S5: Q 3.69 | G 2.79 | D 2.74 | P 3.67 | W 2.64 | A 3.48 | F 2.87 | C 3.03 | N 2.94 | K 3.23 | Y 3.01 | V 3.03 | T 3.85 | I 3.25 | H 3.01 | E 3.25 | L 3.13 | M 3.23 | R 2.66
E8: K 2.79 | H 2.48 | N 2.84 | I 2.28 | G 2.76 | T 2.41 | Q 2.67 | M 2.06 | S 2.17 | R 2.33 | A 1.66 | Y 2.25 | W 1.79 | C 1.72 | P 3.86 | F 2.13 | L 2.27 | D 2.55 | V 2.18
L13: I 4.62 | E 4.25 | Q 5.08 | H 4.85 | N 4.96 | P 4.73 | G 4.59 | F 4.25 | C 4.32 | K 4.25 | D 5.39 | M 3.34 | A 4.28
A11: D 2.94 | M 2.01 | V 2.87 | L 1.71 | T 3.37 | C 3.89 | K 3.04 | H 3.38 | I 2.24 | G 4.24 | Q 3.28 | P 4.43 | F 2.41 | E 4.26 | R 2.62 | Y 2.3 | N 3.1 | S 2.77 | W 2.59
E12: K 3.38 | Q 2.67 | V 3.17 | F 3.56 | T 3.62 | L 2.75 | S 2.94 | M 3.49 | C 3.05 | N 3.18 | A 2.47 | Y 3.22 | R 3.59 | G 3.65 | I 2.57 | P 4.04 | D 3.33 | H 2.41 | W 1.64
Q3: M 2.59 | Y 2.12 | N 2.81 | I 2.69 | E 3.54 | R 3.21 | D 3.1 | H 2.6 | K 2.19 | T 3.48 | F 2.11 | P 3.01 | A 3.13 | G 3.25 | L 3.35 | S 3.53 | V 3.1 | C 2.53 | W 2.62
Q10: Y 1.89 | S 3.7 | R 2.56 | T 3.91 | F 1.79 | C 2.45 | E 3.95 | I 2.04 | V 2.56 | N 3.54 | A 2.93 | H 3.1 | L 2.17 | W 2.21 | D 5.13 | G 3.85 | P 4.69 | M 2.29 | K 3.74
L2: D 3.65 | M 3.61 | W 2.75 | C 2.42 | E 4.46 | N 3.52 | Q 3.85 | F 2.83 | H 3.21 | K 2.89 | V 3.68 | T 2.94 | I 2.82 | A 3.02 | R 2.59 | P 4.15 | G 3.38 | Y 3.35 | S 3.96
